Data published in US20160136299A1 (published 2016).
Where two headings read alike, the source gives them in different places. Values belong to the binder of their own block, whether it stands above or below them.

Assays:
Control enzyme (S4) = assay: SPR
[1] = biological target: SAM conjugate (~0.8 GalNAc) (S9); assay: SPR; ~0.8 GalNAc
[2] = biological target: SAM conjugate (~1.6 GalNAc) (S10); assay: SPR; ~1.6 GalNAc
[3] = biological target: SAM conjugate (~8 gp) (S5); assay: SPR; trivalent galactose glycopeptide conjugate
CD-52 peptide 741 [4] = assay: SPR
CD-52 peptide 741 [5] = assay: SPR; remark: listed apart in the source

B2: A114N (antibody)
heavy: not shown
light: DIVMTQTPLSLSVTPGQPASISCKSSQSLLYSNGKTYLNWLLQKPGQSPQRLIYLVSKLDSGVPDRFSGSGSGTDFTLKISRVEAEDVGVYYCVQGTHLHTFGQGTRLEIKRTVAAPSVFIFPPSDEQLKSGTASVVCLLNNFYPREAKVQWKVDNALQSGNSQESVTEQDSKDSTYSLSSTLTLSKADYEKHKVYACEVTHQGLSSPVTKSFNRGEC
modifications: additional N-linked glycan at N114 (Kabat)
- Kd (CD-52 peptide 741 [4]): 2.4 nM

B3: S440N (antibody)
heavy: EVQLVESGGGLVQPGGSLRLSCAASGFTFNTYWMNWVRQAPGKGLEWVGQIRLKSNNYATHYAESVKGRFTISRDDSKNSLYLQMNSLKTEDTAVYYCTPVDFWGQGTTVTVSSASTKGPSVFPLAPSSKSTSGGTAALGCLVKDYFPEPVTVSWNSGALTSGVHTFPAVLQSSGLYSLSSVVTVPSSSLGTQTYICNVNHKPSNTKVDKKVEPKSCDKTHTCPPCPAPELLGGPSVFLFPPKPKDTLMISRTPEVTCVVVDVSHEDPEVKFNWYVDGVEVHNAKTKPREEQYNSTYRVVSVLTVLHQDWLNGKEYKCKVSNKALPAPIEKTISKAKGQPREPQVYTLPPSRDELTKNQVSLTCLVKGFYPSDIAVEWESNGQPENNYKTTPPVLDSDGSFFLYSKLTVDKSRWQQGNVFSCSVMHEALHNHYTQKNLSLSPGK
light: B2 light
- Kd (CD-52 peptide 741 [5]): 1.84 nM

B4: Y436T (antibody)
heavy: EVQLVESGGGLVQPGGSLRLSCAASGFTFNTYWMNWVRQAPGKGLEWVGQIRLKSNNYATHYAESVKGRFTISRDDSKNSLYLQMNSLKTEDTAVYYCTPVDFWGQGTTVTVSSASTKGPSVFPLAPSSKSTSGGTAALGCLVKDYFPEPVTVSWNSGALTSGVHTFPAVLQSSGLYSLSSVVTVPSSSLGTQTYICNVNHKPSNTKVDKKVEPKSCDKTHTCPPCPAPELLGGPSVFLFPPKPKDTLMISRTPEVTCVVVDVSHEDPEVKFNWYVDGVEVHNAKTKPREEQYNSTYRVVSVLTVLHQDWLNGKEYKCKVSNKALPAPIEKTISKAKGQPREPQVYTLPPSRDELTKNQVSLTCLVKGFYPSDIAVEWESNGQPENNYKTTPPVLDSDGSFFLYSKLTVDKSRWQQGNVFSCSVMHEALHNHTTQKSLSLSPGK
light: B2 light
- Kd (CD-52 peptide 741 [5]): 1.95 nM

B5: S298N/Y300S (antibody)
heavy: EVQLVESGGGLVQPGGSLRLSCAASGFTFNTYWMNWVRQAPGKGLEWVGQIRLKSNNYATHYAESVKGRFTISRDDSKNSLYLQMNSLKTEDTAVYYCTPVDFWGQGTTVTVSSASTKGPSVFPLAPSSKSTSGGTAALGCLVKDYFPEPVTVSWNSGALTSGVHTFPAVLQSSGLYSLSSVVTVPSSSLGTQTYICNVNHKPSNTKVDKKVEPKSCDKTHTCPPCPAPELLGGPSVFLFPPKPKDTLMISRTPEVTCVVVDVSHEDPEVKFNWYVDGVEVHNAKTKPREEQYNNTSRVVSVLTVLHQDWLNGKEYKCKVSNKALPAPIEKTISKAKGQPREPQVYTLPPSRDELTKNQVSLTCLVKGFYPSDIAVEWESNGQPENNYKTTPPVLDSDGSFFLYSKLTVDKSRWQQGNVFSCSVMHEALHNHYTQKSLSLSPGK
light: B2 light
- Kd (CD-52 peptide 741 [5]): 1.8 nM

B7: Y436S (antibody)
heavy: not shown
light: B2 light
- Kd (CD-52 peptide 741 [5]): 1.73 nM

B9: S442N (antibody)
heavy: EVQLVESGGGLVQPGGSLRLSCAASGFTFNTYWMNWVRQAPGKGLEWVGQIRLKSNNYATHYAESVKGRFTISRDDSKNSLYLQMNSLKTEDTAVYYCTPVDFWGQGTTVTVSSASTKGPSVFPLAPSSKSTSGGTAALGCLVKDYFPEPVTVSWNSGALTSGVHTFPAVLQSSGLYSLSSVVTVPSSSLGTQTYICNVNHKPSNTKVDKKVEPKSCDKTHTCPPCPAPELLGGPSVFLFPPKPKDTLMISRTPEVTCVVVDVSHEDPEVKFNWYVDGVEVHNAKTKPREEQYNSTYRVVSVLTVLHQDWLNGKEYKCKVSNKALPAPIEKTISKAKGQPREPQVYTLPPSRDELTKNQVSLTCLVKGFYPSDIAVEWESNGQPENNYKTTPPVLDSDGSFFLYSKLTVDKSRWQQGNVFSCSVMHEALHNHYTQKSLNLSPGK
light: B2 light
- Kd (CD-52 peptide 741 [5]): 1.85 nM

Now from value to binder:

- koff (Control enzyme (S4)): 0.0515 s⁻¹
- koff [1]: 0.00107 s⁻¹
- koff [2]: 0.000296 s⁻¹
- koff [3]: 0.0387 s⁻¹
B1: ASGPR receptor subunit H1 (receptor)
chain: QNSQLQEELRGLRETFSNFTASTEAQVKGLSTQGGNVGRKMKSLESQLEKQQKDLSEDHSSLLLHVKQFVSDLRSLSCQMAALQGNGSERTCCPVNWVEHERSCYWFSRSGKAWADADNYCRLEDAHLVVVTSWEEQKFVQHHIGPVNTWMGLHDQNGPWKWVDGTDYETGFKNWRPEQPDDWYGHGLGGGEDCAHFTDDGRWNDDVCQRPYRWVCETELDKASQEPPLL

- Kd (CD-52 peptide 741 [5]): 1.35 nM
B6: NGT (antibody)
heavy: not shown
light: B2 light

- Kd (CD-52 peptide 741 [5]): 1.75 nM
- Kd (CD-52 peptide 741 [4]): 2.1 nM
B8: WT 2C3 (antibody)
heavy: not shown
light: B2 light
